Measurements: patent US20250333523A1 (Alector, published 2025)

T1: Avi/His-HuIL18BPa (recombinant human IL-18BP isoform A with Avi and poly-His tags) (human, biotinylated with BirA on the Avi tag in some assays)
T1 chain: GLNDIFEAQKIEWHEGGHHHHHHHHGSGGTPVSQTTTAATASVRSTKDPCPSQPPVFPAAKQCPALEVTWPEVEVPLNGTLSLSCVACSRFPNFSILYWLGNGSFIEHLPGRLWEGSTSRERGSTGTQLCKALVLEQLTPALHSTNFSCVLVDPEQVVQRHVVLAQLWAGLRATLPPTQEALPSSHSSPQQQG

T2: Avi/HisMsIL18BPd (recombinant mouse IL-18BP with Avi and poly-His tags) (mouse, biotinylated with BirA on the Avi tag in some assays)
T2 chain: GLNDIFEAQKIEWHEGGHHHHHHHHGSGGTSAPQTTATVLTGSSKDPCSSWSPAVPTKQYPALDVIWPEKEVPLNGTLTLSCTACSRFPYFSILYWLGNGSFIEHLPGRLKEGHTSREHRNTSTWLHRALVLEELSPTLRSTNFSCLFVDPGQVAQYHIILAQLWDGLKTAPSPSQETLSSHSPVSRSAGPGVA

T3: His/Avi-CynoIL18BP (recombinant cynomolgus IL-18BP with His and Avi tags) (cynomolgus monkey)
T3 chain: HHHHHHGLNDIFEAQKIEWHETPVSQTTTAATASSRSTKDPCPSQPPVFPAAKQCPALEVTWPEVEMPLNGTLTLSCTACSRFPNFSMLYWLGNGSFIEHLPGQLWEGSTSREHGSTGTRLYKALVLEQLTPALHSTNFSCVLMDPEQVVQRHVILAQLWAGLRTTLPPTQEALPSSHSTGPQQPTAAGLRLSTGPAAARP

T4: mouse IL-18BPd-human IgG Fc (R&D Systems, Cat. #122-BP-100) (mouse; human, UniProt Q9Z0M9 29-193)
T4 construct: Bought; also called mouse IL-18BPd-Fc Chimera
T4 sequence (looked up): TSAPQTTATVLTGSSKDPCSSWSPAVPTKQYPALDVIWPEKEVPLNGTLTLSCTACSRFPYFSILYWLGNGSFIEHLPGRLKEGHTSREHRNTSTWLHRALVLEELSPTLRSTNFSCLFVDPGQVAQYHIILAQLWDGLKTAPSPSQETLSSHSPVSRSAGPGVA

T5: Avi/HisMsIL18BPd (recombinant mouse IL-18BP with Avi and poly-His tags) (mouse)
T5 sequence (chain, biotinylated with BirA on the Avi tag in some assays): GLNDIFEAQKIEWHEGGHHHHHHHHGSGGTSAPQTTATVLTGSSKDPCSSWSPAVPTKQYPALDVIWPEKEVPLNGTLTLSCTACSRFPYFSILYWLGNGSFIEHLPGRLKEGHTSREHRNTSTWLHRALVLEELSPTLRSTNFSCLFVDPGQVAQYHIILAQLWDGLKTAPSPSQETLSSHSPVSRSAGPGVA


Experiments:
[1] = molecular target: T1, Avi/His-HuIL18BPa (recombinant human …); assay: cell-based or functional assay
[2] = molecular target: T2, Avi/HisMsIL18BPd (recombinant mouse …); assay: cell-based or functional assay
[3] = molecular target: T3, His/Avi-CynoIL18BP (recombinant …); assay: cell-based or functional assay
[4] = molecular target: T1, Avi/His-HuIL18BPa (recombinant human …); assay: ELISA, coated IL-18BP
[5] = molecular target: T2, Avi/HisMsIL18BPd (recombinant mouse …); assay: ELISA, coated IL-18BP
[6] = molecular target: T3, His/Avi-CynoIL18BP (recombinant …); assay: ELISA, coated IL-18BP
[7] = molecular target: T1, Avi/His-HuIL18BPa (recombinant human …); assay: SPR Carterra LSA, IgG immobilized
[8] = molecular target: T3, His/Avi-CynoIL18BP (recombinant …); assay: SPR Carterra LSA, IgG immobilized; WB = weak binding with KD > 1 µM
[9] = molecular target: T4, mouse IL-18BPd-human IgG Fc (R&D …); assay: blocking ELISA, competitor mouse IL-18
[10] = molecular target: T1, Avi/His-HuIL18BPa (recombinant human …); assay: SPR Biacore T200, IgG captured on Protein A/G
[11] = molecular target: T3, His/Avi-CynoIL18BP (recombinant …); assay: SPR Biacore T200, IgG captured on Protein A/G
[12] = molecular target: T3, His/Avi-CynoIL18BP (recombinant …); assay: blocking ELISA, competitor rhesus IL-18
[13] = molecular target: T1, Avi/His-HuIL18BPa (recombinant human …); assay: blocking ELISA, competitor human IL-18
[14] = molecular target: T5, Avi/HisMsIL18BPd (recombinant mouse IL-18BP with Avi and poly-His tags) (mouse); assay: ELISA, coated IL-18BP
[15] = molecular target: T3, His/Avi-CynoIL18BP (recombinant …); assay: SPR Carterra LSA, IgG immobilized
[16] = molecular target: T5, Avi/HisMsIL18BPd (recombinant mouse IL-18BP with Avi and poly-His tags) (mouse); assay: cell-based or functional assay

| Binder | EC50 of IFNγ release, human PBMC [1] | Fold change of IFNγ at 10 µg/ml vs baseline, human PBMC [1] | EC50 of IFNγ release, mouse splenocytes [2] | Fold change of IFNγ at 10 µg/ml vs baseline, mouse splenocytes [2] | % of Max Gamma, human NK cells [3] | EC50 of IFNγ release, human NK cells [3] | ELISA binding ratio (fold-change over background) [4] | ELISA binding ratio (fold-change over background) [5] | ELISA binding ratio (fold-change over background) [6] | Kd [7] | Kd [8] | blocking ELISA signal normalized to isotype control (=1) [9] | Kd [10] | Kd [11] | blocking ELISA signal normalized to isotype control (=1) [12] | blocking ELISA signal normalized to isotype control (=1) [13] | ELISA binding ratio (fold-change over background) (fold over background) [14] | Kd [15] | Fold change of IFNγ at 10 µg/ml vs baseline, mouse splenocytes [16] |
| --- | --- | --- | --- | --- | --- | --- | --- | --- | --- | --- | --- | --- | --- | --- | --- | --- | --- | --- | --- |
| anti-IL18BP antibody BP-15 (antibody, human IgG1, V domains shown) VH: QVQLVQSGAEVKKPGASVKVSCKASGYTFTTYDINWVRQAPGQGLEWMGIINPSGGSTSYAQKFQGRVTMTRDTSTSTVYMELSSLRSEDTAVYYCATGIGELDFDYWGQGTLVTVSS VL: DIQMTQSPSSLSASVGDRVTITCRASQSISSYLNWYQQKPGKAPKLLIYKASTLHNGVPSRFSGSGSGTDFTLTISNLQPEDFATYYCQQAISFPLTFGGGTKVEIK | 100 nM | 36 fold | 5.85 nM | 7.94 fold | 10% | 0.000106 nM | 32.7 fold over background | 30.1 fold over background | 34.5 fold over background | 18.8 nM | > 1000 nM | 0.211 ratio to isotype control | – | – | – | – | – | – | – |
| anti-IL18BP antibody BP-16 (antibody, human IgG1, V domains shown) VH: QVQLVQSGAEVKKPGASVKVSCKASGYTFTTYDINWVRQAPGQGLEWMGIIGSYGGATSYAQKFQGRVTMTRDTSTSTVYMELSSLRSEDTAVYYCATAEEELRFDYWGQGTLVTVSS VL: DIQMTQSPSSLSASVGDRVTITCRASQSISSYLNWYQQKPGKAPKLLIYKASTLHNGVPSRFSGSGSGTDFTLTISNLQPEDFATYYCQQAISFPLTFGGGTKVEIK | 1.66 nM | 238 fold | 3.08 nM | 11.9 fold | 51.6% | 8.4 nM | 23.6 fold over background | 22.1 fold over background | 25.1 fold over background | – | – | – | < 0.003 nM | 11.8 nM | – | – | – | – | – |
| anti-IL18BP antibody BP-02 (antibody, human IgG1, V domains shown) VH: EVQLQQSGPELVKPGASVKIPCKASGYTFTDYNMDWVKQSHGKSLEWIGNINTNNGGTVYNQKFKGKATLTVDKSSSTAYMELRSLTSEDTAVYYCARSDTTVVASRYYAMDYWGQGTSVTVSL VL: DIVLTQSPASLAMSLGKRATISCRASESVSIIATNLIHWYQQKPGQPPKLLIYHASNLETGVPARFSGSGSRTDFTLTIDPVEKDDVAIYYCLQSRKIPPTFGGGTKLEIK | 0.75 nM | 16.7 fold | 4.3 nM | 9.34 fold | 10.4% | 1.99 nM | 35.1 fold over background | 39.2 fold over background | 29.7 fold over background | 1.6 nM | > 1000 nM | 0.132 ratio to isotype control | – | – | 0.973 ratio to isotype control | 0.167 ratio to isotype control | – | – | – |
| anti-IL18BP antibody BP-05 (antibody, human IgG1, V domains shown) VH: EVQLQQSGPELVKPGASVKIPCKASGYTFTDYNMDWVKQSHGKSLEWIGNINTNNGGTVYNQKFKDKATLTVDKSSSTAYMELRSLTSEDTAVYYCARSDTTVVASRYYALDYWGQGTSVTVSS VL: DIVLTQSPASLAMSLGKRATISCRASESVSIIGTDLIHWYQQKPGQPPKLLIYHASNLETGVPARFSGSGSRTDFTLTIDPVEEDDVAIYYCLQSRKIPPTFGGGTKLEIK | 1.33 nM | 16.4 fold | 2.94 nM | 3.15 fold | – | – | 38.3 fold over background | 32.1 fold over background | 9.7 fold over background | 1.67 nM | > 1000 nM | 0.138 ratio to isotype control | – | – | 0.989 ratio to isotype control | 0.191 ratio to isotype control | – | – | – |
| anti-IL18BP antibody BP-11 (antibody, human IgG1, V domains shown) VH: QVQLQQSGAELAKPGASVKMSCKASGYTFTNYWMHWVKQRPGQGLEWIGHIDPSTGYTEYNQKFKDKATLTADKSSSTAYMQLSSLTSEDSAVYYCARGLGGLFGYWGQGTLVTVSA VL: DIQMTQSPSSLSASLGGKVTITCKASQDINKFIAWYQHKPGKGPRLLIHHTSTLMPGIPSRFSGSGSGREYSFSISNLEPEDIATYYCLQYDNLLWTFGGGTKLEIR | 4.25 nM | 9.72 fold | 7 nM | 2.75 fold | 100% | 37.1 nM | 44.4 fold over background | 43.6 fold over background | 47.6 fold over background | – | – | 0.14 ratio to isotype control | 2.9 nM | 1 nM | 0.49 ratio to isotype control | 0.089 ratio to isotype control | – | – | – |
| anti-IL18BP antibody BP-08 (antibody, human IgG1, V domains shown) VH: QVQLQQPGAELVKPGASVKLSCKVSGYTFTSYWMHWVKQRPGQGLEWIGMIDPNSDSSRYNEKFKNRATLTADKSSSTAFMQFSSLTSEDSAVYYCARSRLGQDYWGQGTTLTVSS VL: DIVMTQSHKFMSTSVGDRVSITCKASQDVSTAVAWYQQKPGQSPKLLIYWASTRHTGVPDRFTGSESGTDYTLIISSVQAEDLALYYCQQHFSTPYTFGGGTKLEIK | 2.01 nM | 5.19 fold | – | – | 58.4% | 19.2 nM | 38.8 fold over background | – | 41.5 fold over background | 6.9 nM | – | – | – | – | 0.478 ratio to isotype control | 0.133 ratio to isotype control | 35 | 41.4 nM | 0.75 fold |
